Results as given in publication PMC9783675.

Molecular target: recombinant Nodulin 22 (PvNod22) with a 6xHis-tag at the N-terminus, lacking the ER-signal peptide (Phaseolus vulgaris L.)
Assay: ITC; dilution experiment: PvNod22 injected (10 x 2 µL) into buffer, PBS pH 7.5, 25 °C; agglomerates to smaller oligomers; apparent
Set-up: dH (of dissociation): unit not given here

Kd: 9.13 µM
dH (of dissociation): -49600
Substance: recombinant Nodulin 22 (PvNod22) with a 6xHis-tag at the N-terminus, lacking the ER-signal peptide (natural protein)
